Test results from PMC4627090, “Slicer-independent mechanism drives small-RNA strand separation during human RISC assembly”.

Biological target: recombinant human AGO2 (rhAGO2) (Homo sapiens, UniProt Q9UKV8 1-859)
Experiment: EMSA; 25 C; EMSA: 10 mM HEPES-KOH pH 7.4, 50 mM KCl, 1 mM DTT, 3% Ficoll-400, 0.1 mg/ml BSA, 10 nM RNA, 0-200 nM hAGO2, 30 min at 25 or 37 C, 6% native gel at 4 C; RISC assembly in HEK293T lysate at 0.75-3.75 mM Mg2+, 25 or 37 C
Details: protein: recombinant; tags: N-terminal FLAG and His; label: 32P; single strand

recombinant human AGO2 (rhAGO2), sequence (Q9UKV8 whole entry): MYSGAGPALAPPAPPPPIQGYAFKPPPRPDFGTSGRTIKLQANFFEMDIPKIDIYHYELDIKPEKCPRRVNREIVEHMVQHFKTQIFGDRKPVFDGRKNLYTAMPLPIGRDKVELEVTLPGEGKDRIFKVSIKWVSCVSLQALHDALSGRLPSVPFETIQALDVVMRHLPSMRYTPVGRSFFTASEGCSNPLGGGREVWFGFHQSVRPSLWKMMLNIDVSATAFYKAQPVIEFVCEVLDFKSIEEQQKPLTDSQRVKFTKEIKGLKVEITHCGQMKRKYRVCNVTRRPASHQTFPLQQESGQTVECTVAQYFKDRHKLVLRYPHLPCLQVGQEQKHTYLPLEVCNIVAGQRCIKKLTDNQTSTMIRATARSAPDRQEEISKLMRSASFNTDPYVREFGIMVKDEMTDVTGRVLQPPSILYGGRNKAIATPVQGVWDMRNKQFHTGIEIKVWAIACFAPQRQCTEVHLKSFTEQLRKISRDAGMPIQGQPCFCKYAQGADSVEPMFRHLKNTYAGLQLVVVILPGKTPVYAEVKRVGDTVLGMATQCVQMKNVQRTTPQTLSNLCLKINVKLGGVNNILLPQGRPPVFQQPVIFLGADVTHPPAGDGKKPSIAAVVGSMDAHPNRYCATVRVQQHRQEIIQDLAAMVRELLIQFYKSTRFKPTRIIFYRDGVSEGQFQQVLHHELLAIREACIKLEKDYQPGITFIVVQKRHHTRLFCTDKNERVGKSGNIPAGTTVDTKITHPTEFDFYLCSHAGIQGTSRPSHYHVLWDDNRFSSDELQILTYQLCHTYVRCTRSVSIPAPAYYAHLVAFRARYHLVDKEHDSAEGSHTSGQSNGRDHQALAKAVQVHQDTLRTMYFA

UGGAAUGUAAAGAAGUAUGUA (ssRNA) [miR-1 guide ssRNA]
Kd: ~44.4 nM
